One assay concerns Slc38a5 in α-cells. Briefly: Slc38a5 RNA in situ hybridization and immunofluorescence of pancreas sections. Type of assay: in vivo, mouse. The text has this: Formalin fixed mouse pancreatic sections were permeabilized and hybridized with custom made mRNA probes to glucagon and mouse Slc38a5 (ACD BIO). Following probe hybridization and amplification, Slc38a5 mRNA was detected using red chromogen and glucagon mRNA with green chromogen (RNAscope 2.5 HD Duplex Reagent Kit) and images were obtained using a Zeiss Axio Scan.Z1 slide scanner (Zeiss).

A further assay deals with Slc38a5−/− mice. Briefly: GCGR antibody in Slc38a5−/− mice and wildtype littermates. Type of assay: in vivo, mouse. To be noted: 10 mg/kg weekly, 20 days. The procedure: Mice deficient in Slc38a5 (100% C57BL/6NTac) were generated by homologous recombination using Regeneron's VelociGene technology (Valenzuela et al., 2003, Nat Biotechnol 21:652-659). VelociGene allele identification number is VG15016. Both male and female mice were used for the study. […] Slc38a5^−/− mice and wildtype littermates were dosed with GCGR or control antibody (10 mg/kg; n=8) weekly for 20 days. Samples of blood and plasma as well as organ weights and pancreata were collected as outlined above.

B1: α-GCGR: potent monoclonal GCGR blocking antibody, HCVR/LCVR SEQ ID NOs: 86/88 (antibody, V domains shown)
VH: EVQLVESGGGLVQPGGSLRLSCAASGFTFSNYLMNWVRQAPGKGLEWLANIQEDGIEKYYVDSVKGRFTISRDNAKNSLYLQMNSLRAEDTAVYYCAREPSHYDILTGYDYYYGMDVWGQGTTVTVS
VL: DIQMTQSPSSLSASVGDRVTITCRASQGIRNDLGWYQQKPGKAPKRLIYAASSLQSGVPSRFSGSGSGTEFILTVSSLQPEDFATYYCLQYNSNPFTFGPGTKVDIK
In the case of B1, in the assay on Slc38a5 in α-cells (mice, 3 mg/kg, 21 days), the “Slc38a5 immunostaining of pancreas sections” value is reported as “detected in a subset of glucagon-positive cells”. In addition, in the assay on Slc38a5 in α-cells (pancreas sections of treated mice), the “Slc38a5 mRNA expression in α-cells (RNA ISH)” value is on record as “upregulation”. In the assay with Slc38a5−/− mice, the “blood glucose levels in Slc38a5−/− mice compared with littermate control mice” value is “to the same extent” and the “reduction of the expansion of α-cell mass in Slc38a5−/− mice relative to treated control mice” value came to 50%. In the assay with Slc38a5−/− mice (WT and Slc38a5−/− mice), the plasma insulin levels entry is listed as “No effects”; the “α-cell mass or number of islets per pancreas area (FIGS. 5H and 5I)” value is reported as “did not affect”.

The values are drawn from patent US20190248888A1, “METHODS OF LOWERING BLOOD GLUCOSE LEVELS” (Regeneron Pharmaceuticals, Inc., priority 2016, published 2019).
